Values quoted from earlier work, collected in PMC4266928.
pKd: −log10 of the molar value.

Biological target: insulin (Homo sapiens) (UniProt P01308)

pKd: 5.00
Substance: insulin (from UniProt P01308)
